One block for each binder: values may come before it.
Columns and labels:
[1] = target: T1, human TNFR2 on the surface of CHO-TNFR2 cells (human, UniProt P20333 23-461); test: flow cytometry competition: antibody titrated on CHO-TNFR2 cells, then human TNFα-biotin, detection with PE-streptavidin [panel B]
T1 construct: whole, on cells
T1 sequence (looked up): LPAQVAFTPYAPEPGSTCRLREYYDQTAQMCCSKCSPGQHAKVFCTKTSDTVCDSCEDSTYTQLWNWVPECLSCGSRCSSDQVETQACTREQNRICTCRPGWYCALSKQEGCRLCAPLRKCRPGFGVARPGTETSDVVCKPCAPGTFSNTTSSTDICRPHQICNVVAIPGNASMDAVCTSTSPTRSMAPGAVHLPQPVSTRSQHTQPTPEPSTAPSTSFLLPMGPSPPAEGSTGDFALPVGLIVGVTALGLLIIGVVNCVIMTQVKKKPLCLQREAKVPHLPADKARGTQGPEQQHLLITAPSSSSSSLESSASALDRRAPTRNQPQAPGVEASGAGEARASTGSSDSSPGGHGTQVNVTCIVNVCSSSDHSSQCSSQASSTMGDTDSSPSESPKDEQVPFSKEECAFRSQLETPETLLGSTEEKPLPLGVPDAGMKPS
Description: CHO stable cells highly expressing human TNFR2 were used for the experiment (the same as CHO-TNFR2 in Example 4). The CHO-TNFR2 cells were digested, washed twice with DPBS, then stained with Live/Dead (L/D) (20 minutes at room temperature), and plated at a density of 1×10⁵ cells/50 μl/well. A test anti-TNFR2 antibody was diluted to 6 μg/ml with a staining buffer as the starting concentration: the antibody was subjected to 3.33-fold gradient dilution, with a total of 7 concentration points. The diluted antibody was added to the plated cells at 50 μl/well, and the mixture was mixed well by gentle pipetting, and incubated at 4° C. for 30 minutes. Then the diluted 100 ng/ml of human TNFα-biotin was added at 100 μl/well, and the mixture was mixed well by gentle pipetting, and then incubated at 4° C. for 30 minutes. The mixture was washed twice with a staining buffer, and then 0.12 μg/ml PE-streptavidin (BioLegend, Cat #405204) was added at 100 μl/well; the resulting mixture was incubated at 4° C. for 30 minutes. The mixture was washed twice with a staining buffer, and then 150 μl of staining buffer was added to resuspend the cells; signals were detected by a flow cytometer (Thermo Attune NxT). […]

[2] = target: T2, Cynomolgus TNFR2-His (Sino 90102-C08H) (cynomolgus monkey, UniProt A0A2K5VET2 132-366); test: ELISA, plate coated with Cynomolgus TNFR2-His, detection with anti-human IgG Fc-HRP [panel B]
T2 construct: Bought protein; also called cynomolgus monkey TNFR2; recombinant cynomolgus monkey TNFR2 protein; not shown: His tag
T2 sequence: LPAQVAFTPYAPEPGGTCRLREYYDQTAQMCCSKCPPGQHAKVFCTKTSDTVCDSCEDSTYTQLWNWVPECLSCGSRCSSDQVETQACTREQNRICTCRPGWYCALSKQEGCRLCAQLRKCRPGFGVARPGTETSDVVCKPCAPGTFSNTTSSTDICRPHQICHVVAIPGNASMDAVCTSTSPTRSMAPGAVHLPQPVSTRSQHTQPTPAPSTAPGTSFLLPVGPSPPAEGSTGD
Description: (§1) The test humanized antibody against TNFR2 (as described in Example 1, the antibody was comprised of variable regions linked to IgG-Fc; the WT chimeric antibody also adopted the IgG-Fc structure) was subjected to 3.33-fold gradient dilution, loaded with 100 μl/well, and incubated with shaking at room temperature for 1.5 hours. The plate was washed, and then a working solution of murine anti-human IgG Fc-HRP (diluted at 1:10000) was added, loaded with 100 μl/well, and incubated with shaking at room temperature for 1.0 hour. The plate was washed again, and then the substrate TMB of HRP was added to develop colour. A stop solution was added to stop the reaction, and then a microplate reader (MD 13) was used to read the absorbance value. The binding curve of an antibody was drawn with antibody concentration as the abscissa and corresponding OD value as the ordinate, and fitted with four parameters (GraphPad Prism9) to calculate the EC50 value. The smaller the EC50 value, the stronger the binding ability of an antibody to human/cynomolgus monkey TNFR2. The binding effect of a humanized antibody was normalized to its corresponding human-murine chimeric antibody WT (see SEQ ID NOs: 38-43 for the sequence). The higher the percentage value, the better the binding effect of the humanized antibody. […]

[3] = target: T2, Cynomolgus TNFR2-His (Sino 90102-C08H); test: ELISA, plate coated with Cynomolgus TNFR2-His, detection with anti-human IgG Fc-HRP [panel C]
Description: as §1

IC50 (read off the curve) [1]: ~50 ng/mL
EC50 (read off the curve) [2]: ~10 ng/mL
B1: 219-WT (antibody, V domains shown)
VH: EVQLQESGAELVRPGASVKLSCKASGYSFTNYWMNWVKQRPGQGLEWIGMIHPSDTETRLNQNFKDKATLTVDKSSSTSYMQLSSPTSEDSAVYYCARGEGLGAARSVSMDYWGQGTTVTVSS
VL: DILMTQSPSSLSASLGDRVTISCRASQDISNYLNWYQQKPDGTVKVLIYYTAILHSGVPSRFSGSGSGTDYSLTISNLEQEDIATYFCQQGNTLPWTFGGGTKLEIK
notes: Human-murine chimeric wild-type molecule

EC50 (read off the curve) [3]: ~10 ng/mL
B2: 224-WT (antibody, V domains shown)
VH: EVQLQESGPEIVKPGASVKLSCTASGFNNKDIYMHWVKQRPEQGLEWIGRIDPATGNTKHDPKFQDKATLSSDTSSNTAYLQFSSLTSEDTAVYYCAHSPYGDFGAMDYWGQGTTVTVSS
VL: DIQMTQSPAIMSASLGERVTMTCTASSSVSSNYLHWYQQKPGSSPKLWIYSTSNLPSGVPARFSGSGSGTSYSLTISSMEAEDAATYYCHQYHRSPWTFGGGTKLEIK
notes: Human-murine chimeric wild-type molecule; also called human-murine chimeric antibody WT of #224

Reference: patent publication US20240109974A1 (SHANDONG SIMCERE BIOPHARMACEUTICAL, published 2024)
